Tests used:
HeLa Kyoto [1] = test: solubility in G1/S (NP-40 vs SDS abundance) (log2 ratio); higher = more soluble; details: cell cycle stage: G1/S
HeLa Kyoto [2] = test: melting temperature (median over replicates), in situ; higher = more thermally stable
HeLa Kyoto [3] = test: solubility change mitosis vs G1/S (difference of NP-40 vs SDS log2 ratios) (log2 ratio difference); higher = more soluble in mitosis
HeLa Kyoto [4] = test: thermal stability score vs G1/S (z-score of summed log2 fold changes over temperatures); higher = more thermally stable than in G1/S
[5] = cell cycle stage: early G1 (4.5 h after nocodazole release)
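Throughout, for melting temperature (median over replicates), in situ: HeLa Kyoto cells synchronized by double thymidine or nocodazole block, proteins quantified by TMT10plex mass spectrometry, three independent biological replicates.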
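Throughout, for solubility change mitosis vs G1/S (difference of NP-40 vs SDS log2 ratios): synchronized HeLa Kyoto cells (double thymidine block for G1/S, nocodazole release for mitosis), protein amounts in NP-40 versus SDS lysates quantified by mass spectrometry, three biological replicates.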
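Throughout, for solubility in G1/S (NP-40 vs SDS abundance): HeLa Kyoto cells arrested at G1/S by double thymidine block, proteins quantified by TMT10plex mass spectrometry in mild NP-40 versus SDS extracts, three biological replicates.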
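Throughout, for thermal stability score vs G1/S (z-score of summed log2 fold changes over temperatures): synchronized HeLa Kyoto cells, proteins quantified by TMT10plex mass spectrometry, three biological replicates, mitosis taken 0.5 h after nocodazole release, G1/S directly after double thymidine block.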

Chain of BAG3 (chain, as listed by the source): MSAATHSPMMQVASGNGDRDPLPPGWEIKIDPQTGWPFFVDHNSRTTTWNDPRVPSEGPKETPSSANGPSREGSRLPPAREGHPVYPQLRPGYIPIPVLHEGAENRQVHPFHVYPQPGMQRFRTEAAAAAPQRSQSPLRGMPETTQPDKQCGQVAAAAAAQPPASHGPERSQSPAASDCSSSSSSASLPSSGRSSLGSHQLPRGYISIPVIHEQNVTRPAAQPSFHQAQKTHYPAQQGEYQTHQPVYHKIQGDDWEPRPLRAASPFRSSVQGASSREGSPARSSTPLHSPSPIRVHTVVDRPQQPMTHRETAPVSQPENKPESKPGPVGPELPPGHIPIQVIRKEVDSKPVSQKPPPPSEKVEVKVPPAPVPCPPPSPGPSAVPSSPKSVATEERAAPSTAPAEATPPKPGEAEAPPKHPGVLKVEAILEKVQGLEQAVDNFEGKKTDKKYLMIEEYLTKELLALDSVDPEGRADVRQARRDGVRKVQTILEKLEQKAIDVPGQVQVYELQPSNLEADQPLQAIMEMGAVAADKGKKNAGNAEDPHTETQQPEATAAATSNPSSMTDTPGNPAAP
Chain of LIMD1 (chain, as listed by the source): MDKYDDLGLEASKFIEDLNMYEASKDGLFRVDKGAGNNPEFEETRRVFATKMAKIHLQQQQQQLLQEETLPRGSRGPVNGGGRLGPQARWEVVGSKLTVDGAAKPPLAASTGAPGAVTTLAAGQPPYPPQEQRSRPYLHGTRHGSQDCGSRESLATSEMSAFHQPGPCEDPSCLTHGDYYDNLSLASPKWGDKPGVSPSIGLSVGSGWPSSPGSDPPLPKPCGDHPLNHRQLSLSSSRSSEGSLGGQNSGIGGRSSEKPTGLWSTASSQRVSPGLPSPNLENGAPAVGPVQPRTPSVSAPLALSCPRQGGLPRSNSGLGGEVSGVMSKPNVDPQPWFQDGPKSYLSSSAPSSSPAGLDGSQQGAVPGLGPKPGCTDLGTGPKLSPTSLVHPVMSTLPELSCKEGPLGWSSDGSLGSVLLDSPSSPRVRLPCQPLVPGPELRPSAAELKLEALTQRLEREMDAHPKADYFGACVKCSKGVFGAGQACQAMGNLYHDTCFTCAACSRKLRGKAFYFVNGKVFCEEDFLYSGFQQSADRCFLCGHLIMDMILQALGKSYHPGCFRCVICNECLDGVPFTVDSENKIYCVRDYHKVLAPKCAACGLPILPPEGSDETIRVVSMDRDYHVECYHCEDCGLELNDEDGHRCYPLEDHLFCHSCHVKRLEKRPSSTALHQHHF

Row | Substance | solubility in G1/S (log2) (HeLa Kyoto [1]) | melting temperature (HeLa Kyoto [2]; cell cycle stage: G1/S) | melting temperature (HeLa Kyoto [2]; cell cycle stage: mitosis) | solubility change mitosis (log2) (HeLa Kyoto [3]) | thermal stability score (HeLa Kyoto [4]; [5]) | thermal stability score (HeLa Kyoto [4]; cell cycle stage: mitosis)
1 | MASQPPPPPKPWETRRIPGAGPGPGPGPTFQSADLGPTLMTRPGQPALTRVPPPILPRPSQQTGSSSVNTFRPAYSSFSSGYGAYGNSFYGGYSPYSYGYNGLGYNRLRVDDLPPSRFVQQAEESSRGAFQSIESIVHAFASVSMMMDATFSAVYNSFRAVLDVANHFSRLKIHFTKVFSAFALVRTIRYLYRRLQRMLGLRRGSENEDLWAESEGTVACLGAEDRAATSAKSWPIFLFFAVILGGPYLIWKLLSTHSDEVTDSINWASGEDDHVVARAEYDFAAVSEEEISFRAGDMLNLALKEQQPKVRGWLLASLDGQTTGLIPANYVKILGKRKGRKTVESSKVSKQQQSFTNPTLTKGATVADSLDEQEAAFESVFVETNKVPVAPDSIGKDGEKQDL [PEX13] | -0.182 | 53.5 °C | 53.4 °C | 0.116 | -2.51 | -2.78
2 | MAPPSVFAEVPQAQPVLVFKLTADFREDPDPRKVNLGVGAYRTDDCHPWVLPVVKKVEQKIANDNSLNHEYLPILGLAEFRSCASRLALGDDSPALKEKRVGGVQSLGGTGALRIGADFLARWYNGTNNKNTPVYVSSPTWENHNAVFSAAGFKDIRSYRYWDAEKRGLDLQGFLNDLENAPEFSIVVLHACAHNPTGIDPTPEQWKQIASVMKHRFLFPFFDSAYQGFASGNLERDAWAIRYFVSEGFEFFCAQSFSKNFGLYNERVGNLTVVGKEPESILQVLSQMEKIVRITWSNPPAQGARIVASTLSNPELFEEWTGNVKTMADRILTMRSELRARLEALKTPGTWNHITDQIGMFSFTGLNPKQVEYLVNEKHIYLLPSGRINVSGLTTKNLDYVATSIHEAVTKIQ [GOT1] | 0.34 | 58.1 °C | 64.1 °C | -0.116 | -1.19 | -1.58
3 | ZSWIM8 | -0.162 | 49.2 °C | 49 °C | -0.0253 | 0.66 | 1.55
4 | LIMD1 | 0.148 | 51.8 °C | 51.9 °C | -0.126 | 0.183 | -0.541
5 | MSRLLWRKVAGATVGPGPVPAPGRWVSSSVPASDPSDGQRRRQQQQQQQQQQQQQPQQPQVLSSEGGQLRHNPLDIQMLSRGLHEQIFGQGGEMPGEAAVRRSVEHLQKHGLWGQPAVPLPDVELRLPPLYGDNLDQHFRLLAQKQSLPYLEAANLLLQAQLPPKPPAWAWAEGWTRYGPEGEAVPVAIPEERALVFDVEVCLAEGTCPTLAVAISPSAWYSWCSQRLVEERYSWTSQLSPADLIPLEVPTGASSPTQRDWQEQLVVGHNVSFDRAHIREQYLIQGSRMRFLDTMSMHMAISGLSSFQRSLWIAAKQGKHKVQPPTKQGQKSQRKARRGPAISSWDWLDISSVNSLAEVHRLYVGGPPLEKEPRELFVKGTMKDIRENFQDLMQYCAQDVWATHEVFQQQLPLFLERCPHPVTLAGMLEMGVSYLPVNQNWERYLAEAQGTYEELQREMKKSLMDLANDACQLLSGERYKEDPWLWDLEWDLQEFKQKKAKKVKKEPATASKLPIEGAGAPGDPMDQEDLGPCSEEEEFQQDVMARACLQKLKGTTELLPKRPQHLPGHPGWYRKLCPRLDDPAWTPGPSLLSLQMRVTPKLMALTWDGFPLHYSERHGWGYLVPGRRDNLAKLPTGTTLESAGVVCPYRAIESLYRKHCLEQGKQQLMPQEAGLAEEFLLTDNSAIWQTVEELDYLEVEAEAKMENLRAAVPGQPLALTARGGPKDTQPSYHHGNGPYNDVDIPGCWFFKLPHKDGNSCNVGSPFAKDFLPKMEDGTLQAGPGGASGPRALEINKMISFWRNAHKRISSQMVVWLPRSALPRAVIRHPDYDEEGLYGAILPQVVTAGTITRRAVEPTWLTASNARPDRVGSELKAMVQAPPGYTLVGADVDSQELWIAAVLGDAHFAGMHGCTAFGWMTLQGRKSRGTDLHSKTATTVGISREHAKIFNYGRIYGAGQPFAERLLMQFNHRLTQQEAAEKAQQMYAATKGLRWYRLSDEGEWLVRELNLPVDRTEGGWISLQDLRKVQRETARKSQWKKWEVVAERAWKGGTESEMFNKLESIATSDIPRTPVLGCCISRALEPSAVQEEFMTSRVNWVVQSSAVDYLHLMLVAMKWLFEEFAIDGRFCISIHDEVRYLVREEDRYRAALALQITNLLTRCMFAYKLGLNDLPQSVAFFSAVDIDRCLRKEVTMDCKTPSNPTGMERRYGIPQGEALDIYQIIELTKGSLEKRSQPGP [POLG] | 0.0107 | 50.3 °C | 50.6 °C | -0.0443 | 0.521 | 0.308
6 | MSTEGGFGGTSSSDAQQSLQSFWPRVMEEIRNLTVKDFRVQELPLARIKKIMKLDEDVKMISAEAPVLFAKAAQIFITELTLRAWIHTEDNKRRTLQRNDIAMAITKFDQFDFLIDIVPRDELKPPKRQEEVRQSVTPAEPVQYYFTLAQQPTAVQVQGQQQGQQTTSSTTTIQPGQIIIAQPQQGQTTPVTMQVGEGQQVQIVQAQPQGQAQQAQSGTGQTMQVMQQIITNTGEIQQIPVQLNAGQLQYIRLAQPVSGTQVVQGQIQTLATNAQQGQRNASQGKPRRCLKETLQITQTEVQQGQQQFSQFTDGQRNSVQQARVSELTGEAEPREVKATGNSTPCTSSLPTTHPPSHRAGASCVCCSQPQQSSTSPPPSDALQWVVVEVSGTPNQLETHRELHAPLPGMTSLSPLHPSQQLYQIQQVTMPAGQDLAQPMFIQSANQPSDGQAPQVTGD [NFYC] | 0.266 | 54.7 °C | 54.3 °C | -0.174 | -0.186 | -0.549
7 | CCDC88A | 0.124 | 49 °C | 49 °C | -0.1 | -0.404 | 1.05
8 | MAQRKNAKSSGNSSSSGSGSGSTSAGSSSPGARRETKHGGHKNGRKGGLSGTSFFTWFMVIALLGVWTSVAVVWFDLVDYEEVLGKLGIYDADGDGDFDVDDAKVLLGLKERSTSEPAVPPEEAEPHTEPEEQVPVEAEPQNIEDEAKEQIQSLLHEMVHAEHVEGEDLQQEDGPTGEPQQEDDEFLMATDVDDRFETLEPEVSHEETEHSYHVEETVSQDCNQDMEEMMSEQENPDSSEPVVEDERLHHDTDDVTYQVYEEQAVYEPLENEGIEITEVTAPPEDNPVEDSQVIVEEVSIFPVEEQQEVPPETNRKTDDPEQKAKVKKKKPKLLNKFDKTIKAELDAAEKLRKRGKIEEAVNAFKELVRKYPQSPRARYGKAQCEDDLAEKRRSNEVLRGAIETYQEVASLPDVPADLLKLSLKRRSDRQQFLGHMRGSLLTLQRLVQLFPNDTSLKNDLGVGYLLIGDNDNAKKVYEEVLSVTPNDGFAKVHYGFILKAQNKIAESIPYLKEGIESGDPGTDDGRFYFHLGDAMQRVGNKEAYKWYELGHKRGHFASVWQRSLYNVNGLKAQPWWTPKETGYTELVKSLERNWKLIRDEGLAVMDKAKGLFLPEDENLREKGDWSQFTLWQQGRRNENACKGAPKTCTLLEKFPETTGCRRGQIKYSIMHPGTHVWPHTGPTNCRLRMHLGLVIPKEGCKIRCANETKTWEEGKVLIFDDSFEHEVWQDASSFRLIFIVDVWHPELTPQQRRSLPAI [ASPH] | -0.00862 | 54.2 °C | 53.5 °C | 0.0282 | 1.63 | 2.03
9 | MAVARVDAALPPGEGSVVNWSGQGLQKLGPNLPCEADIHTLILDKNQIIKLENLEKCKRLIQLSVANNRLVRMMGVAKLTLLRVLNLPHNSIGCVEGLKELVHLEWLNLAGNNLKAMEQINSCTALQHLDLSDNNISQIGDLSKLVSLKTLLLHGNIITSLRMAPAYLPRSLAILSLAENEIRDLNEISFLASLTELEQLSIMNNPCVMATPSIPGFDYRPYIVSWCLNLRVLDGYVISQKESLKAEWLYSQGKGRAYRPGQHIQLVQYLATVCPLTSTLGLQTAEDAKLEKILSKQRFHQRQLMNQSQNEELSPLVPVETRASLIPEHSSPVQDCQISQESEPVIQVNSWVGINSNDDQLFAVKNNFPASVHTTRYSRNDLHLEDIQTDEDKLNCSLLSSESTFMPVASGLSPLSPTVELRLQGINLGLEDDGVADESVKGLESQVLDKEEEQPLWAANENSVQMMRSEINTEVNEKAGLLPCPEPTIISAILKDDNHSLTFFPESTEQKQSDIKKPENTQPENKETISQATSEKLPMILTQRSVALGQDKVALQKLNDAATKLQACWRGFYARNYNPQAKDVRYEIRLRRMQEHIVCLTDEIRRLRKERDEERIKKFVQEEAFRFLWNQVRSLQVWQQTVDQRLSSWHTDVPPISSTLVPSKHPLFTQSQESSCDQNADWFIASDVAPQEKSLPEFPDSGFHSSLTEQVHSLQHSLDFEKSSTEGSESSIMGNSIDTVRYGKESDLGDVSEEHGEWNKESSNNEQDNSLLEQYLTSVQQLEDADERTNFDTETRDSKLHIACFPVQLDTLSDGASVDESHGISPPLQGEISQTQENSKLNAEVQGQQPECDSTFQLLHVGVTV [CEP97] | 0.0763 | 49.6 °C | 49.9 °C | -0.207 | 0.503 | 1.24
10 | MHPRRPDGFDGLGYRGGARDEQGFGGAFPARSFSTGSDLGHWVTTPPDIPGSRNLHWGEKSPPYGVPTTSTPYEGPTEEPFSSGGGGSVQGQSSEQLNRFAGFGIGLASLFTENVLAHPCIVLRRQCQVNYHAQHYHLTPFTVINIMYSFNKTQGPRALWKGMGSTFIVQGVTLGAEGIISEFTPLPREVLHKWSPKQIGEHLLLKSLTYVVAMPFYSASLIETVQSEIIRDNTGILECVKEGIGRVIGMGVPHSKRLLPLLSLIFPTVLHGVLHYIISSVIQKFVLLILKRKTYNSHLAESTSPVQSMLDAYFPELIANFAASLCSDVILYPLETVLHRLHIQGTRTIIDNTDLGYEVLPINTQYEGMRDCINTIRQEEGVFGFYKGFGAVIIQYTLHAAVLQITKIIYSTLLQNNI [SLC25A46] | 0.0119 | 54.2 °C | 53.8 °C | -0.0414 | -2.69 | -1.76
11 | MVQLYNLHPFGSQQVVPCKLEPDRFCGGGRDALFVAAGCKVEAFAVAGQELCQPRCAFSTLGRVLRLAYSEAGDYLVAIEEKNKATFLRAYVNWRNKRTENSRVCIRMIGHNVEGPFSKAFRDQMYIIEMPLSEAPLCISCCPVKGDLLVGCTNKLVLFSLKYQIINEEFSLLDFERSLIIHIDNITPVEVSFCVGYVAVMSDLEVLIVKLESGPKNGERVHHHPHKTNNRIRRTEEGISNEISQLESDDFVICQKPLELLGEKSEQSGLSVTLESTGLADEKRKYSHFQHLLYRRFAPDISSYVLSDDIKLHSLQLLPIYQTGSLTSDGKNLSQEKELLSLFCFFSLPHVGYLYMVVKSVELMSVYQYPEKSQQAVLTPQFLHVITSNNLQCFTVRCSAAAAREEDPYMDTTLKACPPVSMDVCALRIQLFIGLKAICHFKNHIILLTKAEPEAIPERRQSPKRLLSRKDTSVKIKIPPVAEAGWNLYIVNTISPVQLYKEMVDYSNTYKTVKTQSCIHLLSEAHLLVRAALMDASQLEPGEKAELLEAFKESCGHLGDCYSRLDSQHSHLTLPYYKMSGLSMAEVLARTDWTVEDGLQKYERGLIFYINHSLYENLDEELNEELAAKVVQMFYVAEPKQVPHILCSPSMKNINPLTAMSYLRKLDTSGFSSILVTLTKAAVALKMGDLDMHRNEMKSHSEMKLVCGFILEPRLLIQQRKGQIVPTELALHLKETQPGLLVASVLGLQKNNKIGIEEADSFFKVLCAKDEDTIPQLLVDFWEAQLVACLPDVVLQELFFKLTSQYIWRLSKRQPPDTTPLRTSEDLINACSHYGLIYPWVHVVISSDSLADKNYTEDLSKLQSLICGPSFDIASIIPFLEPLSEDTIAGLSVHVLCRTRLKEYEQCIDILLERCPEAVIPYANHELKEENRTLWWKKLLPELCQRIKCGGEKYQLYLSSLKETLSIVAVELELKDFMNVLPEDGTATFFLPYLLYCSRKKPLT [HPS3] | -0.0533 | 51.4 °C | 50.6 °C | -0.103 | 0.612 | 0.736
12 | BAG3 | 0.185 | 53.6 °C | 53.1 °C | 1.06 | 1.43 | 5.24

Source: the supplement of paper PMC5998384
